Experiment: Hampton Screens I and II, vapor diffusion
Details: glycan lost; control: glycosylated GOx from P. pastoris

B1: Glucose oxidase (GOx), mutants A2 and F9: Endo H (protein)
parent chain: MQTLLVSSLVVSLAAALPHYIRSNGIEASLLTDPKDVSGRTVDYIIAGGGLTGLTTAARLTENPNISVLVIESGSYESDRGPIIEDLNAYGDIFGSSVDHAYETVELATNNQTALIRSGNGLGGSTLVNGGTWTRPHKAQVDSWETVFGNEGWNWDNVAAYSLQAERARAPNAKQIAAGHYFNASCHGVNGTVHAGPRDTGDDYSPIVKALMSAVEDRGVPTKKDFGCGDPHGVSMFPNTLHEDQVRSDAAREWLLPNYQRPNLQVLTGQYVGKVLLSQNGTTPRAVGVEFGTHKGNTHNVYAKHEVLLAAGSAVSPTILEYSGIGMKSILEPLGIDTVVDLPVGLNLQDQTTATVRSRITSAGAGQGQAAWFATFNETFGDYSEKAHELLNTKLEQWAEEAVARGGFHNTTALLIQYENYRDWIVNHNVAYSELFLDTAGVASFDVWDLLPFTRGYVHILDKDPYLHHFAYDPQYFLNELDLLGQAAATQLARNISNSGAMQTYFAGETIPGDNLAYDADLSAWTEYIPYHFRPNYHGVGTCSMMPKEMGGVVDNAARVYGVQGLRVIDGSIPPTQMSSHVMTVFYAMALKISDAILEDYASMQ
- other: crystallisability: increases
